Test results from paper PMC8695382 (Nature, 2021).

Columns and labels:
Experiment in all cases: cryo-EM structure; yeast replisome–SCF^Dia2 complexes assembled in the absence of DNA (off DNA); 3.9 Å
Settings in all cases: both partners purified
Mcm5 = molecular target: T1, Mcm5 (Saccharomyces cerevisiae, UniProt P29496 1-775)
T1 construct: Mcm5, S. cerevisiae; Subunit of m2; source: purified as part of CMG
T1 sequence: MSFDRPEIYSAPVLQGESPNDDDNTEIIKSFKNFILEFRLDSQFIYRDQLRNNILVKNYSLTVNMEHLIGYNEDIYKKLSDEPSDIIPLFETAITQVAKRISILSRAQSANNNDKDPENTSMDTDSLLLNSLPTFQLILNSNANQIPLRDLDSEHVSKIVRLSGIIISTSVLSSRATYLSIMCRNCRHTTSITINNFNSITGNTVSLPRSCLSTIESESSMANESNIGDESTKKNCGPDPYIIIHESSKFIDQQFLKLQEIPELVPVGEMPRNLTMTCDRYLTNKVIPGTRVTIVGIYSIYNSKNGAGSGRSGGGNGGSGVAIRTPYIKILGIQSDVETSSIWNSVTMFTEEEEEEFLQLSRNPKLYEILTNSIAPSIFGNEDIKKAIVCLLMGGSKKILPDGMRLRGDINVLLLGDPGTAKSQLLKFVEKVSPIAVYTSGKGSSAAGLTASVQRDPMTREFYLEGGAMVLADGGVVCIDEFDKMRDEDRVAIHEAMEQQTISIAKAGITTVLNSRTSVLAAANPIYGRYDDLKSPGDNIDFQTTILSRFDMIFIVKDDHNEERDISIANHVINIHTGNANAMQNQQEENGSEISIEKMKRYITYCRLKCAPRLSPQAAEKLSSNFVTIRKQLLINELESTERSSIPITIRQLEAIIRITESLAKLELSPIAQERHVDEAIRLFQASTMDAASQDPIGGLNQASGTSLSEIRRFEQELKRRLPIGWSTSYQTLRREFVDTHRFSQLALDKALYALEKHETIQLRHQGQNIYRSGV

Mcm3 = molecular target: T2, Mcm3 (Saccharomyces cerevisiae, UniProt P24279 1-971)
T2 construct: Mcm3, S. cerevisiae; Subunit of m2; source: purified as part of CMG

Mcm7 = molecular target: T3, Mcm7 (Saccharomyces cerevisiae, UniProt P38132 1-845)
T3 construct: Mcm7, S. cerevisiae; Subunit of m2; source: purified as part of CMG
T3 sequence: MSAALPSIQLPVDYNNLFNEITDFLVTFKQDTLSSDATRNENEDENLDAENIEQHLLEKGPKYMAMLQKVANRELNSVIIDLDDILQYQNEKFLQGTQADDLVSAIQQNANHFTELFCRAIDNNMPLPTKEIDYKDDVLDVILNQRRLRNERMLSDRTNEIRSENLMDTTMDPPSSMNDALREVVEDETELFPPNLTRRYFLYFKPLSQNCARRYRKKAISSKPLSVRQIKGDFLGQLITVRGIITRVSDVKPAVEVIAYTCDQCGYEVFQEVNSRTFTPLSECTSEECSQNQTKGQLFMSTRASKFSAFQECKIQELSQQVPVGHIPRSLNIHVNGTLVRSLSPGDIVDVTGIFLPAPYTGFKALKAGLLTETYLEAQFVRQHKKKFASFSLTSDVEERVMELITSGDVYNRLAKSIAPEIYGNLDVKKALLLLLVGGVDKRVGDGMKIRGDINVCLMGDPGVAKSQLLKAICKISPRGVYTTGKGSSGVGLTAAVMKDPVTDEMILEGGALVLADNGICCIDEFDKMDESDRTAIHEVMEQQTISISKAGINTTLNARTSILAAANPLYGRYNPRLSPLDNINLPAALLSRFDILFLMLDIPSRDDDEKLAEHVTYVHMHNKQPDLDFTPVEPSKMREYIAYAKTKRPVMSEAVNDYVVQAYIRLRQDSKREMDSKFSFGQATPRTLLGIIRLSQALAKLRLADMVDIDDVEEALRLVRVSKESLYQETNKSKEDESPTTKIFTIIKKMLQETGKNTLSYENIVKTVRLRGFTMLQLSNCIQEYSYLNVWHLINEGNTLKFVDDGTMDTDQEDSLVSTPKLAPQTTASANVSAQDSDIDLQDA

Measured: binding result

T2 sequence (P24279 whole entry): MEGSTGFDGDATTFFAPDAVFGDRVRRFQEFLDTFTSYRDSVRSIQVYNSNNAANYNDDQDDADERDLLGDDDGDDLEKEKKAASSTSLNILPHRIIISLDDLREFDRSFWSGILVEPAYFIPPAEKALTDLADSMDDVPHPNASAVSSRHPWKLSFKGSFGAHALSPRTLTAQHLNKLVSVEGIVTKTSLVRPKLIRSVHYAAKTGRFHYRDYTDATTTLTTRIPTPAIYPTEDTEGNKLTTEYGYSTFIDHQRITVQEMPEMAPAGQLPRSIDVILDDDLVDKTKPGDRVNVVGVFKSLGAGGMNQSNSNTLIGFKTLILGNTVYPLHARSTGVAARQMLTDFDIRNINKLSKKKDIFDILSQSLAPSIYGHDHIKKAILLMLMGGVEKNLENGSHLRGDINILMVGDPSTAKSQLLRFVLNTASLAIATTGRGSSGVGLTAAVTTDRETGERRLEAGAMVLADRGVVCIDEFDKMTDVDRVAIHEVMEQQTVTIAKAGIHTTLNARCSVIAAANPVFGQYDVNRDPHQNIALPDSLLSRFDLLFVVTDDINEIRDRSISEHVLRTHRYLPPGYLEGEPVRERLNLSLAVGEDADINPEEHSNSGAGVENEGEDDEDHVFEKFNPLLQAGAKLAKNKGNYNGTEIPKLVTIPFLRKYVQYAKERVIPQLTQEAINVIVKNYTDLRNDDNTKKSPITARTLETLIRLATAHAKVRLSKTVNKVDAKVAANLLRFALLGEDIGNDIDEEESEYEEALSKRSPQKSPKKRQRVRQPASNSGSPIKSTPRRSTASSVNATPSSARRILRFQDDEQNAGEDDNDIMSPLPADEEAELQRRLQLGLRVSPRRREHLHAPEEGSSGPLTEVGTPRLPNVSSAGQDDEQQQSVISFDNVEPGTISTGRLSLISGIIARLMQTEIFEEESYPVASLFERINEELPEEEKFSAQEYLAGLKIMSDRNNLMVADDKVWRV

B1: Dia2 (natural protein, Saccharomyces cerevisiae)
chain: MSSPGNSGVAIDSTVLKAIELGTRLFKSGEYLQAKRIFTNALRVCDSYSQEQIMRIRNAYQLDTARPDNKRLYHPRYIKILDNICACYEKLNDLKSCLDVSQRLLKLEPGNIKCYIRCTRTLIKLKDWKRAYKTCSRGLQLCNNDSNHLRQQKQFIKNNMVQKQDGKRSYIDPLEETKIAKKKKNNNVLESLPKKKIKGSTKKTDLVGNLPIEILPIIFQRFTTKELVTLSLVCNKWRDKILYHLDCFQEFNLAPINFKNFVKFMDFLQQNFTRTYRKYILSQVKVSSRITSEELRITQLLFSKMPKCINIERLILSMPTLTTTQIFKLMVRGGTDFFTRLLELSLMITYRPDKQHELEILQTCPLLKKIELIFVNSLVPIFDGNNSVGRDGSFNVMARHTNMQISTADNDEQGIVEEKVIYSELEKITLICDKKKIKNFPLCRALLRGQFPLLQKLTITGVTFPMNNQDIMNFQWLLNFPDLKELWIEDNDNCELSKFLQLLKFSNVWKNLEKLTFRENKLYPIVNLDEDQPVTNDDEVPSMLFYKENLQNLEKLDLMGTSISGSALTRLCEQEYLDGRKLRSLNIGNCPNIQFPNNHAHTARMILDVNAVLKRLSKLEEINLSHLSSLNDSTMKSFIINVPFLENLKRLDISHNFEITGISIYEFLKKFQMDHDNEAGGQPLAYLNIDGCSQVSHITVNMIRAQNLVTQVDCVYERDVWRKFGINSYSYS
notes: Dia2, F-box protein, S. cerevisiae; model built for F-box (211–247), LRRs (248–716) and C-terminal tail (717–732); N-terminal TPR domain not visible; Subunit of m1 as it stands in the cryo-EM samples; also called Dia2^LRR (its leucine-rich repeat domain); source: purified as part of SCF^Dia2
binds: all assays above
